Numbered stars: 1 amine (or outer) side, 2 acyl side, 3 side chain; on linkers, the order of the positions; unused ones are H or OH. Bridge positions count the residues as written; N and C are the ends. Square brackets hold non-standard residues; d marks the D form. Ends that are not written are not given here. * marks the point of attachment. TATA = O=C(CC[*:1])N1CN(C(=O)CC[*:2])CN(C(=O)CC[*:3])C1; hArg = N=C(N)NCCCC[C@H](N)C(=O)O; Agb = N=C(N)NCC[C@H](N)C(=O)O; Pent4ynoyl = C#CCCC(=O)*
B1: BCY19147 (peptide)
peptide: Ac-CNAVLCSWA[hArg]ANSFCK(Pent4ynoyl)
modifications: linker 1-6-15 via TATA; also: trimer: each monomer attached at C-terminus to central hinge B (PEG23)
B2: BCY17346 (peptide)
peptide: ACNAVLCSWARANSFCA
modifications: linker 2-7-16 via TATA; also: trimer: each monomer C-terminus attached to hinge B (PEG23)
B3: BCY17345 (peptide)
peptide: ACNAVLCSWARANSFCA
modifications: linker 2-7-16 via TATA; also: dimer: each monomer attached at C-terminus to central hinge A (PEG23)
B4: BCY19071 (peptide)
peptide: Ac-CNSYTCYIKHILG[Agb]C
modifications: linker 1-6-15 via TATA; also: dimer: each monomer attached at C-terminus to central hinge A (PEG23)
B5: BCY17347 (peptide)
peptide: ACNAVLCSWARANSFCA
modifications: linker 2-7-16 via TATA; also: tetramer: each monomer attached at its C-terminus to central hinge moiety C (PEG23), further groups not given here
B6: BCY19148 (peptide)
peptide: Ac-CNAVLCSWA[hArg]ANSFCK(Pent4ynoyl)
modifications: linker 1-6-15 via TATA; also: tetramer: each monomer attached at C-terminus to central hinge C (PEG23)

Target: human ACE2 (angiotensin-converting enzyme 2) (human, UniProt Q9BYF1 18-805)
Test: cell-based or functional assay

Sequence of human ACE2 (angiotensin-converting enzyme 2) (Q9BYF1 18-805): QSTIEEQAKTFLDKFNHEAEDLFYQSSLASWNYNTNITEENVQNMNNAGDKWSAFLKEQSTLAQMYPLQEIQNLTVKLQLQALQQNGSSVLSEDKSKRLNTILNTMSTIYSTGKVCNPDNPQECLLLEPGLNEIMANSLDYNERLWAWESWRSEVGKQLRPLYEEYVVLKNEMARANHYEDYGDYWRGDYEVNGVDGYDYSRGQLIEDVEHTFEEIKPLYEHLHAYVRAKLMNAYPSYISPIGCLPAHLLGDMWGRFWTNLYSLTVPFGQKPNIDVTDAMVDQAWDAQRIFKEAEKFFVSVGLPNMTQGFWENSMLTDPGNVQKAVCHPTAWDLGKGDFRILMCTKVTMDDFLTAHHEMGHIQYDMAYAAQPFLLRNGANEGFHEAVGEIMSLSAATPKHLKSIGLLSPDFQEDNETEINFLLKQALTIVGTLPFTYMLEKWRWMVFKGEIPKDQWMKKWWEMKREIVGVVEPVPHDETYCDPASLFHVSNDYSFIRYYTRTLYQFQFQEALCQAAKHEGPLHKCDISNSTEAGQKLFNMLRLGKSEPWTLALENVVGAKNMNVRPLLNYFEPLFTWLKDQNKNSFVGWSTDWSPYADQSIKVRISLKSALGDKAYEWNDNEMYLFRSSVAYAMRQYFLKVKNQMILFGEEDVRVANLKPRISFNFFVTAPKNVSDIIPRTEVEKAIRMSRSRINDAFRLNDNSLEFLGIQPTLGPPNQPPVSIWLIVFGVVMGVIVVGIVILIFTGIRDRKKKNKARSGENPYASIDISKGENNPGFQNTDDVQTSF

Binder | Pseudoviral Neutralisation Assay, Geomean IC50 [nM]
B1 | 17.7
B2 | 12
ACNAVLCSWARANSFCA (linker 2-7-16 via TATA) [BCY15429] | 1280
B3 | 6.96
B4 | 24
B5 | 3.75
B6 | 10.1
